From patent publication US20250002610A1 (Genmab, published 2025)

Key:
[1] = molecular target: T1, His-tagged recombinant Cynomolgus FAPα (Acro Biosystems, Cat #FAP-C52H3-100ug) (cynomolgus monkey, UniProt A0A2K5VGF4 26-760); experiment: BLI (Octet), antigen immobilized on AR2G sensors, average of three experiments
T1 construct: Bought reagent; also called recombinant cynomolgus monkey FAPα; not shown: His tag of the vendor's construct (Acro Biosystems FAP-C52H3)
T1 sequence: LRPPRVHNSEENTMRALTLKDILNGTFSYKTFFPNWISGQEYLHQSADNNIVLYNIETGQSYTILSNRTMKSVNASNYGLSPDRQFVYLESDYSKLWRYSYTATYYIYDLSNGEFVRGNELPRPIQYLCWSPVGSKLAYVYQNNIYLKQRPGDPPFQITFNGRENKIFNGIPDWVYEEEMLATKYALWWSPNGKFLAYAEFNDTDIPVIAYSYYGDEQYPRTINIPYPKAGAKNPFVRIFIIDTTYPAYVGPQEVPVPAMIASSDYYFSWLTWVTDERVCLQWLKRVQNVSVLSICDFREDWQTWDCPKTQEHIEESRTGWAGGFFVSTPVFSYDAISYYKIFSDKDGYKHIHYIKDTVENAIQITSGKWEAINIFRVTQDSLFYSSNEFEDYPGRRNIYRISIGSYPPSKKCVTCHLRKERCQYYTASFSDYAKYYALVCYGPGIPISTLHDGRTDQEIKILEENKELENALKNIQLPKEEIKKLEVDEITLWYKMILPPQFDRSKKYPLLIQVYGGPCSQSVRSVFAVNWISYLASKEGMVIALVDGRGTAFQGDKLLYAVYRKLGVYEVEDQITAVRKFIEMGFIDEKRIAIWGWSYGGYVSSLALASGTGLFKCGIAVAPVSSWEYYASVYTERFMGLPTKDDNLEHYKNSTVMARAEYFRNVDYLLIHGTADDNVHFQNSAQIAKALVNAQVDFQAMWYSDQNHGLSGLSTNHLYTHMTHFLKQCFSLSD
Experimental: (§1) Experiments were carried out while shaking at 1,000 RPM at 30° C. Amine Reactive 2nd Generation (AR2G) biosensors (Sartorius, Cat #18-5092) were activated by reaction with 20 mM EDC (N-(3-Dimethylaminopropyl)-N′-ethylcarbodiimide hydrochloride) (Sigma-Aldrich, Cat #03449) and 10 mM s-NHS (N-hydroxysulfosuccinimide sodium salt) (Sigma-Aldrich, Cat #56485) for 300 s. The activated AR2G sensors were loaded with 2.5 μg/mL His-tagged recombinant Human FAPα (Acro Biosystems, Cat #FAP-H5244-100ug) in 10 mM Sodium Acetate pH 5.0 (Sartorius, Cat #18-1069) or 2.5 μg/mL His-tagged recombinant Cynomolgus FAPα (Acro Biosystems, Cat #FAP-C52H3-100ug) in 10 mM Sodium Acetate pH 5.0 for 600 s and quenched with 1 M ethanolamine pH 8.5 (Sartorius Cat #18-1071) for 300 s. After a baseline measurement in Sample Diluent (1000 s; Sartorius, Cat #18-1104), the association (100 s) and dissociation (4,000 s) of functionally monovalent antibody was determined using a concentration range of 0.78-800 nM with two-fold dilution steps in Sample Diluent. The molecular mass of the antibodies used for the calculations was calculated from the sequences.
(§2) The Y-axis was aligned to the last 10 s of the baseline; Interstep Correction alignment to dissociation and Savitzky-Golay filtering were applied. Data traces with a response <0.05 nm were excluded from analysis. […] The data were fitted with the 1:1 Global Full fit model using a window of interest for the association of 100 s and dissociation time set 4,000 s.

[2] = molecular target: T2, His-tagged recombinant Human FAPα (Acro Biosystems, Cat #FAP-H5244-100ug) (human, UniProt Q12884 26-760); experiment: as above
T2 construct: Bought reagent; not shown: His tag
T2 sequence (looked up): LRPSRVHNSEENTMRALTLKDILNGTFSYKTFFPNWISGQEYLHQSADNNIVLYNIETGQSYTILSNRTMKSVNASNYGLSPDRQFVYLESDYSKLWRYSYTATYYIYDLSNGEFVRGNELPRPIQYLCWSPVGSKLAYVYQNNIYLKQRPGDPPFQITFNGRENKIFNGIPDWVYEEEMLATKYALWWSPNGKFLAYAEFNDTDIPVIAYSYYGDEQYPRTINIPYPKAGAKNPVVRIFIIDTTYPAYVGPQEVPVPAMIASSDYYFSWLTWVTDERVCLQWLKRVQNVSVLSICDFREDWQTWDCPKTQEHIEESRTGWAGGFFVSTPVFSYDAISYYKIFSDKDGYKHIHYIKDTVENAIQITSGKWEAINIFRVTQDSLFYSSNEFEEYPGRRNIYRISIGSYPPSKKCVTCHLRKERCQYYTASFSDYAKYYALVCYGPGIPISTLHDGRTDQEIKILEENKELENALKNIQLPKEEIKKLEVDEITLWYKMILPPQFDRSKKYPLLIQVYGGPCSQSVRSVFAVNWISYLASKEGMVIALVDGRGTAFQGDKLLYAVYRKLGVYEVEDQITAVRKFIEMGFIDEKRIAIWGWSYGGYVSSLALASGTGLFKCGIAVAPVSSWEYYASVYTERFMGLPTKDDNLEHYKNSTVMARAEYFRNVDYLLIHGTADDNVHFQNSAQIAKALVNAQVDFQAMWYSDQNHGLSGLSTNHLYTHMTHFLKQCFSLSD
Experimental: as §1, §2

[3] = molecular target: T3, human DR4 (Death Receptor 4), cell surface expressed on human tumor cell lines (human, UniProt O00220 24-468); experiment: flow cytometry, HCT-15 cells, average ± SEM
T3 construct: also called TNFRSF10A; TRAIL-R1
T3 sequence: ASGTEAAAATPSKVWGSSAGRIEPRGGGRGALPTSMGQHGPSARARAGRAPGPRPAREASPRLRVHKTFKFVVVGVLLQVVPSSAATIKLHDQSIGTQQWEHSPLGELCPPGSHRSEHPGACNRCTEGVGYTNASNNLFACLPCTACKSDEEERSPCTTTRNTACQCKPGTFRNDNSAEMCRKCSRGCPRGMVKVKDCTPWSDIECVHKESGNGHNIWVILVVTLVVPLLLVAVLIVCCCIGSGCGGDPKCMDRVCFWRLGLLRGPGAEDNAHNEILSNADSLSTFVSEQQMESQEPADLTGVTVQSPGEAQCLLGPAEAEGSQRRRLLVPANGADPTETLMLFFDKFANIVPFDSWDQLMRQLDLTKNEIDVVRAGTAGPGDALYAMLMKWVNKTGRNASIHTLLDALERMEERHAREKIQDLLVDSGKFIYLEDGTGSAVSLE

[4] = molecular target: T3, human DR4 (Death Receptor 4), cell …; experiment: flow cytometry, MDA-MB-231 cells, n = 3

B1: BisG1-FAPα-FERL/DR4-FERR (bispecific antibody, human IgG1, kappa, lambda)
heavy 1: EVQLLESGGGLVQPGGSPRLSCEASGFTFSSYALSWVRQAPGKGLEWVSAISGSGGGRYYADSVKGRFTISRDNSKNTLFLQMNSLRAEDTAVYYCAKEGYSSSGTYWDHWGQGTLVTVSSASTKGPSVFPLAPSSKSTSGGTAALGCLVKDYFPEPVTVSWNSGALTSGVHTFPAVLQSSGLYSLSSVVTVPSSSLGTQTYICNVNHKPSNTKVDKRVEPKSCDKTHTCPPCPAPEFERGPSVFLFPPKPKDTLMISRTPEVTCVVVDVSHEDPEVKFNWYVDGVEVHNAKTKPREEQYNSTYRVVSVLTVLHQDWLNGKEYKCKVSNKALPAPIEKTISKAKGQPREPQVYTLPPSREEMTKNQVSLTCLVKGFYPSDIAVEWESNGQPENNYKTTPPVLDSDGSFLLYSKLTVDKSRWQQGNVFSCSVMHEALHNHYTQKSLSLSPG
light 1: AIQMTQSPSSVSASVGDRVTITCRASQGVSSWLAWYQQKPGRAPKLLIYVASTLQSGVPSRFSGSGSGTDFTLTINSLQPEDFATYYCQQANSFPPTFGQGTRLEMKRTVAAPSVFIFPPSDEQLKSGTASVVCLLNNFYPREAKVQWKVDNALQSGNSQESVTEQDSKDSTYSLSSTLTLSKADYEKHKVYACEVTHQGLSSPVTKSFNRGEC
heavy 2: QVQLQESGPGLVKPSGTLSLTCAVSGGSISSYSWWSWIRQPPGKGLEWIGELYHSGSTNYNPSLKSRVTISVDKSKNQFSLKLRSVTAADTAVYYCVRGVATIDYWGQGTLVTVSSASTKGPSVFPLAPSSKSTSGGTAALGCLVKDYFPEPVTVSWNSGALTSGVHTFPAVLQSSGLYSLSSVVTVPSSSLGTQTYICNVNHKPSNTKVDKRVEPKSCDKTHTCPPCPAPEFERGPSVFLFPPKPKDTLMISRTPEVTCVVVDVSHEDPEVKFNWYVDGVEVHNAKTKPREEQYNSTYRVVSVLTVLHQDWLNGKEYKCKVSNKALPAPIEKTISKAKGQPREPQVYTLPPSREEMTKNQVSLTCLVKGFYPSDIAVEWESNGQPENNYKTTPPVLDSDGSFFLYSRLTVDKSRWQQGNVFSCSVMHEALHNHYTQKSLSLSPG
light 2: QSALTQPPSASGSPGQSVTISCTGTSSDVGGYNFVSWYQQDPGKAPKLLIYEVTKRPSGVPDRFSGSKSGNTASLTVSGLQAEDEADYYCSSYAGSNNVMFGGGTKLTVLGQPKAAPSVTLFPPSSEELQANKATLVCLISDFYPGAVTVAWKADSSPVKAGVETTTPSKQSNNKYAASSYLSLTPEQWKSHRSYSCQVTHEGSTVEKTVAPTECS
notes: Human IgG1 bispecific made by controlled Fab-arm exchange of IgG1-FAPα-FERL and IgG1-DR4-FERR; monovalent for FAPα and for DR4; also called GEN1057
Kd [1]: 0.037 nM
koff [1]: 2.8e-05 s⁻¹
kon [1]: 770000 M⁻¹ s⁻¹
Kd [2]: 0.026 nM
koff [2]: 3e-05 s⁻¹
kon [2]: 1.1e+06 M⁻¹ s⁻¹
EC50 [3]: 0.65 µg/mL

B2: BisG1-b12-FERL/DR4-FERR (bispecific antibody, human IgG1, kappa, lambda)
heavy 1: QVQLVQSGAEVKKPGASVKVSCQASGYRFSNFVIHWVRQAPGQRFEWMGWINPYNGNKEFSAKFQDRVTFTADTSANTAYMELRSLRSADTAVYYCARVGPYSWDDSPQDNYYMDVWGKGTTVIVSSASTKGPSVFPLAPSSKSTSGGTAALGCLVKDYFPEPVTVSWNSGALTSGVHTFPAVLQSSGLYSLSSVVTVPSSSLGTQTYICNVNHKPSNTKVDKRVEPKSCDKTHTCPPCPAPEFERGPSVFLFPPKPKDTLMISRTPEVTCVVVDVSHEDPEVKFNWYVDGVEVHNAKTKPREEQYNSTYRVVSVLTVLHQDWLNGKEYKCKVSNKALPAPIEKTISKAKGQPREPQVYTLPPSREEMTKNQVSLTCLVKGFYPSDIAVEWESNGQPENNYKTTPPVLDSDGSFLLYSKLTVDKSRWQQGNVFSCSVMHEALHNHYTQKSLSLSPG
light 1: EIVLTQSPGTLSLSPGERATFSCRSSHSIRSRRVAWYQHKPGQAPRLVIHGVSNRASGISDRFSGSGSGTDFTLTITRVEPEDFALYYCQVYGASSYTFGQGTKLERKRTVAAPSVFIFPPSDEQLKSGTASVVCLLNNFYPREAKVQWKVDNALQSGNSQESVTEQDSKDSTYSLSSTLTLSKADYEKHKVYACEVTHQGLSSPVTKSFNRGEC
heavy 2: QVQLQESGPGLVKPSGTLSLTCAVSGGSISSYSWWSWIRQPPGKGLEWIGELYHSGSTNYNPSLKSRVTISVDKSKNQFSLKLRSVTAADTAVYYCVRGVATIDYWGQGTLVTVSSASTKGPSVFPLAPSSKSTSGGTAALGCLVKDYFPEPVTVSWNSGALTSGVHTFPAVLQSSGLYSLSSVVTVPSSSLGTQTYICNVNHKPSNTKVDKRVEPKSCDKTHTCPPCPAPEFERGPSVFLFPPKPKDTLMISRTPEVTCVVVDVSHEDPEVKFNWYVDGVEVHNAKTKPREEQYNSTYRVVSVLTVLHQDWLNGKEYKCKVSNKALPAPIEKTISKAKGQPREPQVYTLPPSREEMTKNQVSLTCLVKGFYPSDIAVEWESNGQPENNYKTTPPVLDSDGSFFLYSRLTVDKSRWQQGNVFSCSVMHEALHNHYTQKSLSLSPG
light 2: QSALTQPPSASGSPGQSVTISCTGTSSDVGGYNFVSWYQQDPGKAPKLLIYEVTKRPSGVPDRFSGSKSGNTASLTVSGLQAEDEADYYCSSYAGSNNVMFGGGTKLTVLGQPKAAPSVTLFPPSSEELQANKATLVCLISDFYPGAVTVAWKADSSPVKAGVETTTPSKQSNNKYAASSYLSLTPEQWKSHRSYSCQVTHEGSTVEKTVAPTECS
notes: Fab-arm exchange of IgG1-b12-FERL and IgG1-DR4-FERR; also called bsIgG1-ctrl-FERLxDR4-FERR
EC50 [4]: 0.92 µg/mL
EC50 [3]: 0.56 µg/mL

B3: IgG1-DR4-FERR (antibody, V domains shown)
VH: QVQLQESGPGLVKPSGTLSLTCAVSGGSISSYSWWSWIRQPPGKGLEWIGELYHSGSTNYNPSLKSRVTISVDKSKNQFSLKLRSVTAADTAVYYCVRGVATIDYWGQGTLVTVSS
VL: QSALTQPPSASGSPGQSVTISCTGTSSDVGGYNFVSWYQQDPGKAPKLLIYEVTKRPSGVPDRFSGSKSGNTASLTVSGLQAEDEADYYCSSYAGSNNVMFGGGTKLTVLG
notes: Bivalent monoclonal IgG1 lambda
EC50 [4]: 0.37 µg/mL
